According to the supplement of paper PMC11246515:
± gives the standard deviation of the averaged measurements.

Assay: total protein half-life in vivo (active degradation + dilution); higher = more stable protein
[1] = E. coli NCM3722 delta-hslV, growth: N-lim chemostat, doubling time 6 h
[2] = E. coli NCM3722 delta-lon, growth: N-lim chemostat, doubling time 6 h
[3] = E. coli NCM3722 delta-smpB, growth: N-lim chemostat, doubling time 6 h
[4] = wild type E. coli NCM3722, growth: C-lim chemostat, doubling time 3 h
[5] = wild type E. coli NCM3722, growth: C-lim chemostat, doubling time 6 h
[6] = wild type E. coli NCM3722, growth: C-lim chemostat, doubling time 12 h
[7] = wild type E. coli NCM3722, growth: N-lim chemostat, doubling time 6 h
[8] = wild type E. coli NCM3722, growth: N-lim chemostat, doubling time 12 h
[9] = wild type E. coli NCM3722, growth: P-lim chemostat, doubling time 6 h
[10] = wild type E. coli NCM3722, growth: P-lim chemostat, doubling time 12 h
[11] = E. coli NCM3722 delta-clpP delta-lon delta-hslV, growth: N-lim chemostat, doubling time 6 h
[12] = E. coli NCM3722 delta-clpP, growth: N-lim chemostat, doubling time 6 h

Sequence | total protein half-life in vivo [1] [h] | total protein half-life in vivo [2] [h] | total protein half-life in vivo [3] [h] | total protein half-life in vivo [4] [h] | total protein half-life in vivo [5] [h] | total protein half-life in vivo [6] [h] | total protein half-life in vivo [7] [h] | total protein half-life in vivo [8] [h] | total protein half-life in vivo [9] [h] | total protein half-life in vivo [10] [h] | total protein half-life in vivo [11] [h] | total protein half-life in vivo [12] [h]
MLKKFRGMFSNDLSIDLGTANTLIYVKGQGIVLNEPSVVAIRQDRAGSPKSVAAVGHDAKQMLGRTPGNIAAIRPMKDGVIADFFVTEKMLQHFIKQVHSNSFMRPSPRVLVCVPVGATQVERRAIRESAQGAGAREVFLIEEPMAAAIGAGLPVSEATGSMVVDIGGGTTEVAVISLNGVVYSSSVRIGGDRFDEAIINYVRRNYGSLIGEATAERIKHEIGSAYPGDEVREIEVRGRNLAEGVPRGFTLNSNEILEALQEPLTGIVSAVMVALEQCPPELASDISERGMVLTGGGALLRNLDRLLMEETGIPVVVAEDPLTCVARGGGKALEMIDMHGGDLFSEE [P0A9X4] | 6.55 ± 0.53 | 6.29 ± 0.99 | 5.69 ± 0.23 | 3.039 ± 0.01 | 6.72 ± 0.37 | 12.1 ± 0.77 | 6.13 ± 0.39 | 12.1 ± 0.8 | 5.94 ± 0.36 | 12.4 ± 0.42 | – | –
MKILLAALTSSFMLVGCTPRIEVAAPKEPITINMNVKIEHEIIIKADKDVEELLETRSDLF | – | 6.88 ± 0.2 | 5.661 ± 0.018 | 3.15 ± 0.11 | – | 12 ± 1.4 | – | 13.6 ± 1.1 | – | 12.9 ± 0.47 | 7.04 ± 0.68 | –
MFKRRYVTLLPLFVLLAACSSKPKPTETDTTTGTPSGGFLLEPQHNVMQMGGDFANNPNAQQFIDKMVNKHGFDRQQLQEILSQAKRLDSVLRLMDNQAPTTSVKPPSGPNGAWLRYRKKFITPDNVQNGVVFWNQYEDALNRAWQVYGVPPEIIVGIIGVETRWGRVMGKTRILDALATLSFNYPRRAEYFSGELETFLLMARDEQDDPLNLKGSFAGAMGYGQFMPSSYKQYAVDFSGDGHINLWDPVDAIGSVANYFKAHGWVKGDQVAVMANGQAPGLPNGFKTKYSISQLAAAGLTPQQPLGNHQQASLLRLDVGTGYQYWYGLPNFYTITRYNHSTHYAMAVWQLGQAVALARVQ | – | – | 5.5 ± 0.089 | 3.61 | – | – | 5.55 ± 0.14 | 10.8 | 5.1 | > 16 | 5.38 ± 0.079 | 5.65 ± 2
MFKPELLSPAGTLKNMRYAFAYGADAVYAGQPRYSLRVRNNEFNHENLQLGINEAHALGKKFYVVVNIAPHNAKLKTFIRDLKPVVEMGPDALIMSDPGLIMLVREHFPEMPIHLSVQANAVNWATVKFWQQMGLTRVILSRELSLEEIEEIRNQVPDMEIEIFVHGALCMAYSGRCLLSGYINKRDPNQGTCTNACRWEYNVQEGKEDDVGNIVHKYEPIPVQNVEPTLGIGAPTDKVFMIEEAQRPGEYMTAFEDEHGTYIMNSKDLRAIAHVERLTKMGVHSLKIEGRTKSFYYCARTAQVYRKAIDDAAAGKPFDTSLLETLEGLAHRGYTEGFLRRHTHDDYQNYEYGYSVSDRQQFVGEFTGERKGDLAAVAVKNKFSVGDSLELMTPQGNINFTLEHMENAKGEAMPIAPGDGYTVWLPVPQDLELNYALLMRNFSGETTRNPHGK | 1.96 ± 0.29 | 2.01 ± 0.14 | 1.77 ± 0.092 | 2.77 ± 0.029 | 3.68 ± 0.062 | 5.83 ± 0.49 | 1.91 ± 0.17 | 2.5 ± 0.0042 | 4.1 ± 0.069 | 7.89 ± 0.33 | 2.98 ± 0.19 | 1.94 ± 0.45
MMLSKKNSETLENFSEKLEVEGRSLWQDARRRFMHNRAAVASLIVLVLIALFVILAPMLSQFAYDDTDWAMMSSAPDMESGHYFGTDSSGRDLLVRVAIGGRISLMVGVAAALVAVVVGTLYGSLSGYLGGKVDSVMMRLLEILNSFPFMFFVILLVTFFGQNILLIFVAIGMVSWLDMARIVRGQTLSLKRKEFIEAAQVGGVSTSGIVIRHIVPNVLGVVVVYASLLVPSMILFESFLSFLGLGTQEPLSSWGALLSDGANSMEVSPWLLLFPAGFLVVTLFCFNFIGDGLRDALDPKDR [P0AFH6] | – | 4.46 ± 0.22 | 5.01 ± 0.59 | 3.23 ± 0.41 | 5.484 ± 0.036 | 10.8 ± 2.5 | 5.17 ± 0.17 | 8.49 ± 0.1 | 5.37 ± 0.46 | 9.83 ± 1.2 | 5.16 ± 0.26 | 5.51 ± 0.1
MIEFSHVSKLFGAQKAVNDLNLNFQEGSFSVLIGTSGSGKSTTLKMINRLVEHDSGEIRFAGEEIRSLPVLELRRRMGYAIQSIGLFPHWSVAQNIATVPQLQKWSRARIDDRIDELMALLGLESNLRERYPHQLSGGQQQRVGVARALAADPQVLLMDEPFGALDPVTRGALQQEMTRIHRLLGRTIVLVTHDIDEALRLAEHLVLMDHGEVVQQGNPLTMLTRPANDFVRQFFGRSELGVRLLSLRSVADYVRREERADGEALAEEMTLRDALSLFVARGCEVLPVVNMQGQPCGTLHFQDLLVEA | – | 4.82 | 4.51 ± 0.06 | 2.77 ± 0.11 | 4.96 ± 0.22 | 8.02 ± 0.57 | 5.05 ± 0.085 | 7.777 ± 0.046 | 4.85 ± 0.33 | 8.835 ± 0.04 | 5.87 ± 0.78 | 5.31 ± 0.036
